Source: publication PMC7794362, “Structural basis for distinct inflammasome complex assembly by human NLRP1 and CARD8” (Nature Communications, 2021)

T1: NLRC4-CARD without SNAP (filament seed) (human, UniProt Q9NPP4 1-102)
T1 construct: CARD domain of human NLRC4, residues 1-102, construct without SNAP tag; source: E. coli BL21(DE3), purified (Ni-NTA, SEC), oligomeric seed fraction
T1 sequence (looked up): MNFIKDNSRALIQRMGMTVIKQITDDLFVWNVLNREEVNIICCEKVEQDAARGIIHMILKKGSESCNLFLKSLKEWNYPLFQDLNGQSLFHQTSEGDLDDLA

B1: NLRC4-CARD filament (SNAP tag cleaved off), solved by cryo-EM (domain or fragment, human, UniProt Q9NPP4 1-102, looked up)
chain: T1 sequence (looked up)
notes: CARD domain of human NLRC4, residues 1-102; also called NLRC4-CARD thin filament; source: E. coli BL21(DE3), purified; filaments grown from SNAP-tagged monomer with seeds, SNAP cleaved by 3C protease, Superose 6; not shown: SNAP, C-terminal, cleaved
B2: recombinant NLRP1-CARD (filament solved by cryo-EM) (domain or fragment, human, UniProt Q9C000 1374-1466, looked up)
chain: DAPQLLHFVDQYREQLIARVTSVEVVLDKLHGQVLSQEQYERVLAENTRPSQMRKLFSLSQSWDRKCKDGLYQALKETHPHLIMELWEKGSKK
notes: CARD domain of human NLRP1, construct 1374-1466; the results say that trimming of the last eight a.a; (1466-1473) stabilised the homogeneous single filament; two CARD constructs (1374-1466, 1374-1473) were cloned; also called NLRP1-CARD core filament; source: E. coli BL21(DE3), purified (Ni-NTA, SEC), concentrated to ~400 uM
B3: CASP1-CARD-SNAP (domain or fragment, human, UniProt P29466 1-92, looked up)
chain: MADKVLKEKRKLFIRSMGEGTINGLLDELLQTRVLNKEEMEKVKRENATVMDKTRALIDSVIPKGAQACQICITYICEEDSYLAGTLGLSAD
modifications: Alexa Fluor 647 (BG-Alexa dye) on the SNAP tag in the native gel assay
notes: CARD domain of human caspase-1, residues 1-92; A 3C protease site lies between the CARD and the SNAP tag; also called SNAP-tagged CASP1-CARD; fluorescently labeled CASP1-CARD; not shown: SNAP, C-terminal, kept
B4: recombinant NLRP1-FIIND^UPA-CARD (a.a. 1213-1473), bacteria-derived (domain or fragment, human, UniProt Q9C000 1213-1473, looked up)
chain: SPLGVLLKMIHNALRFIPVTSVVLLYHRVHPEEVTFHLYLIPSDCSIRKAIDDLEMKFQFVRIHKPPPLTPLYMGCRYTVSGSGSGMLEILPKELELCYRSPGEDQLFSEFYVGHLGSGIRLQVKDKKDETLVWEALVKPGDLMPATTLIPPARIAVPSPLDAPQLLHFVDQYREQLIARVTSVEVVLDKLHGQVLSQEQYERVLAENTRPSQMRKLFSLSQSWDRKCKDGLYQALKETHPHLIMELWEKGSKKGLLPLSS
notes: C-terminal auto-cleavage fragment (FIIND^UPA-CARD) of human NLRP1, a.a; 1213-1473; also called NLRP1-FIIND^UPA-CARD filaments; SNAP-NLRP1-FIIND^UPA-CARD
B5: recombinant CARD8-CARD (451-537) (domain or fragment, human, UniProt Q9Y2G2-5 451-537, looked up)
chain: AAFVKENHRQLQARMGDLKGVLDDLQDNEVLTENEKELVEQEKTRQSKNEALLSMVEKKGDLALDVLFRSISERDPYLVSYLRQQNL
notes: CARD domain of human CARD8, residues 451-537; the numbers fit the 537-residue isoform; Called 'untagged' in the seeding experiment, there meaning without the SNAP tag; also called CARD8-CARD filaments; CARD8-CARD without SNAP; source: E. coli BL21(DE3), purified (Ni-NTA, SEC)

Experiments:
[1] = target: the molecule itself; assay: cryo-EM structure; helical reconstruction of CARD filaments; ~2 mg/ml on Quantifoil R1.2/1.3 grids, Titan Krios 300 kV, RELION 3.0
[2] = target: T1, NLRC4-CARD without SNAP (filament seed); assay: native gel or EMSA; in vitro oligomerization assay: Alexa Fluor 647-labelled monomeric SNAP-ASC-CARD or CASP1-CARD-SNAP (10 uM) mixed with 20 or 5 uM seed oligomer for 15 min at room temperature; Bis-Tris native PAGE, fluorescence scan; details: both partners purified
[3] = target: the molecule itself; assay: as above
[4] = target: the molecule itself; assay: negative stain EM; recombinant NLRP1 constructs at various concentrations (Fig. 1e, f); samples below ~200 uM; NLRP1-CARD alone or with FIIND^UPA at 1:1 molar ratio
CASP1-CARD-SNAP = target: B3; assay: native gel or EMSA; in vitro oligomerization assay: Alexa Fluor 647-labelled monomeric SNAP-ASC-CARD or CASP1-CARD-SNAP (10 uM) mixed with 20 or 5 uM seed oligomer for 15 min at room temperature; Bis-Tris native PAGE, fluorescence scan; details: both partners purified

Binder: B1
- binding result [1]: binds

Binder: B2
- binding result [1]: binds

Binder: B3
- binding result [2]: binds
- binding result [3]: binds

Binder: B4
- fold lower concentration requirement for oligomerization, against NLRP1-CARD [4]: ≥ 50 fold

Binder: B5
- binding result (CASP1-CARD-SNAP): binds
- binding result [1]: binds
